Laboratory results: patent publication US20150344570A1 (published 2015)

B1: GpH7-A5/GpH7-B3 variant A330_05P/GpL16-k0 (antibody, human IgG1, kappa)
heavy 1: not shown
heavy 2: not shown
light: DIVMTQSPLSLPVTPGEPASISCQASESLVHSNRNTYLHWYLQKPGQSPQLLIYKVSNRFSGVPDRFSGSGSGTDFTLKISRVEAEDVGVYYCSQNTHVPPTFGQGTKVEIERTVAAPSVFIFPPSDEQLKSGTASVVCLLNNFYPREAKVQWKVDNALQSGNSQESVTEQDSKDSTYSLSSTLTLSKADYEKHKVYACEVTHQGLSSPVTKSFNRGEC
notes: one H chain altered; also called He Ab A330_05P
B2: GpH7-B3 variant K326_07I/GpL16-k0 (antibody, human IgG1, kappa)
heavy: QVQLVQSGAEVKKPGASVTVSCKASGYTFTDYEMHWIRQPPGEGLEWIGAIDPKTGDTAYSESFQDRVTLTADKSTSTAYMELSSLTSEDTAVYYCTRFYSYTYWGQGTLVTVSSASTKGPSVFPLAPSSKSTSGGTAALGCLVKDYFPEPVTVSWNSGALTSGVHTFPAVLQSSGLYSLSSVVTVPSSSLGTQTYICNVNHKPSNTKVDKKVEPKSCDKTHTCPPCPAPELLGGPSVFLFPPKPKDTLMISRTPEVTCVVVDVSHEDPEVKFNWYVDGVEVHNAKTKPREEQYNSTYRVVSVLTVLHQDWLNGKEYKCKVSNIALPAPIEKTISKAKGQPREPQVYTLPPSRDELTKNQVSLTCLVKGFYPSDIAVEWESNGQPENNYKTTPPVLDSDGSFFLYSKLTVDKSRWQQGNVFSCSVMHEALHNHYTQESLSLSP
light: B1 light
notes: both H chains altered; also called Ho Ab K326_07I
B3: GpH7-A5/GpH7-B3 variant I336_08L/GpL16-k0 (antibody, human IgG1, kappa)
heavy 1: not shown
heavy 2: not shown
light: B1 light
notes: one H chain altered; also called He Ab I336_08L
B4: GpH7-B3 variant L234_04F/GpL16-k0 (antibody, human IgG1, kappa)
heavy: not shown
light: B1 light
notes: both H chains altered; also called Ho Ab L234_04F
B5: GpH7-A5/GpH7-B3 variant E333_02A/GpL16-k0 (antibody, human IgG1, kappa)
heavy 1: not shown
heavy 2: not shown
light: B1 light
notes: one H chain altered; also called He Ab E333_02A
B6: GpH7-B3 variant T335_20W/GpL16-k0 (antibody, human IgG1, kappa)
heavy: not shown
light: B1 light
notes: both H chains altered; also called Ho Ab T335_20W
B7: GpH7-A5/GpH7-B3 variant L234_07I/GpL16-k0 (antibody, human IgG1, kappa)
heavy 1: not shown
heavy 2: not shown
light: B1 light
notes: one H chain altered; also called He Ab L234_07I
B8: GpH7-A5/GpH7-B3 variant G236_15Y/GpL16-k0 (antibody, human IgG1, kappa)
heavy 1: not shown
heavy 2: not shown
light: B1 light
notes: one H chain altered; also called He Ab G236_15Y
B9: GpH7-B3 variant I336_03V/GpL16-k0 (antibody, human IgG1, kappa)
heavy: not shown
light: B1 light
notes: both H chains altered; also called Ho Ab I336_03V
B10: GpH7-A5/GpH7-B3 variant E333_13S/GpL16-k0 (antibody, human IgG1, kappa)
heavy 1: not shown
heavy 2: not shown
light: B1 light
notes: one H chain altered; also called He Ab E333_13S
B11: GpH7-B3 variant K334_01G/GpL16-k0 (antibody, human IgG1, kappa)
heavy: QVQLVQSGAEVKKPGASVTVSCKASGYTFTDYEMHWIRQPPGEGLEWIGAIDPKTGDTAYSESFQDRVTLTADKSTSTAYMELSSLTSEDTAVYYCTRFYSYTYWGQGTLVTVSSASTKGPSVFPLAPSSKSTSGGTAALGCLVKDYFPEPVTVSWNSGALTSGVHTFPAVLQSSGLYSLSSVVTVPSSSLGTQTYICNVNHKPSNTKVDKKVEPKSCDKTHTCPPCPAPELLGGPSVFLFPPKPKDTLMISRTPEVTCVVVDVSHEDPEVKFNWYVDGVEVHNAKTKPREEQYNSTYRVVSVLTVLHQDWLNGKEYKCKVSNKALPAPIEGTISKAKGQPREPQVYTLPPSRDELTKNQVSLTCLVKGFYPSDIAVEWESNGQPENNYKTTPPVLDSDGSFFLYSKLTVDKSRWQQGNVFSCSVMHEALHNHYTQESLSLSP
light: B1 light
notes: both H chains altered; also called Ho Ab K334_01G
B12: GpH7-B3 variant S337_15Y/GpL16-k0 (antibody, human IgG1, kappa)
heavy: not shown
light: B1 light
notes: both H chains altered; also called Ho Ab S337_15Y
B13: GpH7-B3 variant I336_08L/GpL16-k0 (antibody, human IgG1, kappa)
heavy: not shown
light: B1 light
notes: both H chains altered; also called Ho Ab I336_08L
B14: GpH7-A5/GpH7-B3 variant L234_04F/GpL16-k0 (antibody, human IgG1, kappa)
heavy 1: not shown
heavy 2: not shown
light: B1 light
notes: one H chain altered; also called He Ab L234_04F
B15: GpH7-A5/GpH7-B3 variant H268_18N/GpL16-k0 (antibody, human IgG1, kappa)
heavy 1: not shown
heavy 2: not shown
light: B1 light
notes: one H chain altered; also called He Ab H268_18N
B16: GpH7-B3 variant K326_08L/GpL16-k0 (antibody, human IgG1, kappa)
heavy: not shown
light: B1 light
notes: both H chains altered; also called Ho Ab K326_08L
B17: GpH7-B3 variant T335_13S/GpL16-k0 (antibody, human IgG1, kappa)
heavy: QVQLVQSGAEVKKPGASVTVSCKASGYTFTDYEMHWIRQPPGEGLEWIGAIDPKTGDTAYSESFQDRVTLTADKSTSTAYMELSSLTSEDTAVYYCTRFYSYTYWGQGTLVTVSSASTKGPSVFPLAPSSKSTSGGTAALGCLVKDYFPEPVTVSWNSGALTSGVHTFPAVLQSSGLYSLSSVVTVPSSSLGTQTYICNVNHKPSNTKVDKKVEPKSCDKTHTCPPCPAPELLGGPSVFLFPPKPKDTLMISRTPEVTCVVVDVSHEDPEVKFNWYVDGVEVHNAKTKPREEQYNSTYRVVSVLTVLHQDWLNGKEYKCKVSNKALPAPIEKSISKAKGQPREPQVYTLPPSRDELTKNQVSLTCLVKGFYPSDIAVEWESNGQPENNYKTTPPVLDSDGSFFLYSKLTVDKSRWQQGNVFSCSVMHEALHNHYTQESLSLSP
light: B1 light
notes: both H chains altered; also called Ho Ab T335_13S
B18: GpH7-B3 variant S337_14T/GpL16-k0 (antibody, human IgG1, kappa)
heavy: not shown
light: B1 light
notes: both H chains altered; also called Ho Ab S337_14T
B19: GpH7-B3 variant I336_18N/GpL16-k0 (antibody, human IgG1, kappa)
heavy: not shown
light: B1 light
notes: both H chains altered; also called Ho Ab I336_18N
B20: GpH7-B3 variant Q295_14T/GpL16-k0 (antibody, human IgG1, kappa)
heavy: not shown
light: B1 light
notes: both H chains altered; also called Ho Ab Q295_14T
B21: GpH7-B3 variant G236_15Y/GpL16-k0 (antibody, human IgG1, kappa)
heavy: not shown
light: B1 light
notes: both H chains altered; also called Ho Ab G236_15Y
B22: GpH7-B3 variant E333_09D/GpL16-k0 (antibody, human IgG1, kappa)
heavy: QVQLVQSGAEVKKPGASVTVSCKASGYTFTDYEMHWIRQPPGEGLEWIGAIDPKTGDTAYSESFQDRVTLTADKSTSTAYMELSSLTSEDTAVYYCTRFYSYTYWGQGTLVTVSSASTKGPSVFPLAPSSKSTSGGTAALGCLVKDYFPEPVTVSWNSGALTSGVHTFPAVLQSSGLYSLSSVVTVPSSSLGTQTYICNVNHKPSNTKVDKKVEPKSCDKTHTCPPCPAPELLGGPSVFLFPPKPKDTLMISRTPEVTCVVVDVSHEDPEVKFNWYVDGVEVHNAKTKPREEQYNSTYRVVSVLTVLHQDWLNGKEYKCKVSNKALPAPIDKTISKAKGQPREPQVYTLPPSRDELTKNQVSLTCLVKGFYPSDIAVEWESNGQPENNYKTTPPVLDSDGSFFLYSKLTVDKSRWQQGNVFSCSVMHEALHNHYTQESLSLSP
light: B1 light
notes: both H chains altered; also called Ho Ab E333_09D
B23: GpH7-B3 variant L234_07I/GpL16-k0 (antibody, human IgG1, kappa)
heavy: not shown
light: B1 light
notes: both H chains altered; also called Ho Ab L234_07I
B24: GpH7-B3 variant G236_20W/GpL16-k0 (antibody, human IgG1, kappa)
heavy: not shown
light: B1 light
notes: both H chains altered; also called Ho Ab G236_20W
B25: GpH7-B3 variant S298_14T/GpL16-k0 (antibody, human IgG1, kappa)
heavy: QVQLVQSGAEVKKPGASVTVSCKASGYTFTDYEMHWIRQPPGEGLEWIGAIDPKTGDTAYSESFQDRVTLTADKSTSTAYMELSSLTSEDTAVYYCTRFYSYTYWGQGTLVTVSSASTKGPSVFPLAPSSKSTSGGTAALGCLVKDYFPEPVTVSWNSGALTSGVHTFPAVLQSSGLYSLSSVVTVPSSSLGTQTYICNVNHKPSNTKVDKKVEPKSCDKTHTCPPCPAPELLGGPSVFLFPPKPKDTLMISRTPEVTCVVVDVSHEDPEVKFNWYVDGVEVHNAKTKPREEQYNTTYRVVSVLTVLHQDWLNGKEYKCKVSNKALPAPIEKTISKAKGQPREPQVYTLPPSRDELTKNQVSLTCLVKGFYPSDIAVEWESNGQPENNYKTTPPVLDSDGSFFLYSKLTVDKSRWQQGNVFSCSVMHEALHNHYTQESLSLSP
light: B1 light
notes: both H chains altered; also called Ho Ab S298_14T
B26: GpH7-B3 variant T335_16H/GpL16-k0 (antibody, human IgG1, kappa)
heavy: not shown
light: B1 light
notes: both H chains altered; also called Ho Ab T335_16H
B27: GpH7-B3 variant I336_02A/GpL16-k0 (antibody, human IgG1, kappa)
heavy: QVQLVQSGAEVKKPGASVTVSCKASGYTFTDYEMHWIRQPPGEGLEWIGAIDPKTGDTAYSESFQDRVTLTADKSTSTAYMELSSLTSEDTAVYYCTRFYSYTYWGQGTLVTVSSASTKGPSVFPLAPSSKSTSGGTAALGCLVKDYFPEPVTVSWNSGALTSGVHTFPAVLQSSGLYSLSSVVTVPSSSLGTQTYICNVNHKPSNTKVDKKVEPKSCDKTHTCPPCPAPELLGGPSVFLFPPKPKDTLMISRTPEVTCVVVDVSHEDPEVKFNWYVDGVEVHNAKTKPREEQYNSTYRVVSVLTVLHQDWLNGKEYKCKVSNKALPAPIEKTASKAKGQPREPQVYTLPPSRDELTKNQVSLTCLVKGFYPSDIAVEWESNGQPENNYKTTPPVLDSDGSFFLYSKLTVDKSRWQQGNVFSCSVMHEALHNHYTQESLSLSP
light: B1 light
notes: both H chains altered; also called Ho Ab I336_02A
B28: GpH7-B3 variant S267_02A/GpL16-k0 (antibody, human IgG1, kappa)
heavy: not shown
light: B1 light
notes: both H chains altered; also called Ho Ab S267_02A
B29: GpH7-A5/GpH7-B3 variant I332_06M/GpL16-k0 (antibody, human IgG1, kappa)
heavy 1: not shown
heavy 2: not shown
light: B1 light
notes: one H chain altered; also called He Ab I332_06M
B30: GpH7-B3 variant V266_08L/GpL16-k0 (antibody, human IgG1, kappa)
heavy: not shown
light: B1 light
notes: both H chains altered; also called Ho Ab V266_08L
B31: GpH7-B3 variant S337_09D/GpL16-k0 (antibody, human IgG1, kappa)
heavy: not shown
light: B1 light
notes: both H chains altered; also called Ho Ab S337_09D
B32: GpH7-B3 variant H268_02A/GpL16-k0 (antibody, human IgG1, kappa)
heavy: not shown
light: B1 light
notes: both H chains altered; also called Ho Ab H268_02A
B33: GpH7-B3 variant S324_16H/GpL16-k0 (antibody, human IgG1, kappa)
heavy: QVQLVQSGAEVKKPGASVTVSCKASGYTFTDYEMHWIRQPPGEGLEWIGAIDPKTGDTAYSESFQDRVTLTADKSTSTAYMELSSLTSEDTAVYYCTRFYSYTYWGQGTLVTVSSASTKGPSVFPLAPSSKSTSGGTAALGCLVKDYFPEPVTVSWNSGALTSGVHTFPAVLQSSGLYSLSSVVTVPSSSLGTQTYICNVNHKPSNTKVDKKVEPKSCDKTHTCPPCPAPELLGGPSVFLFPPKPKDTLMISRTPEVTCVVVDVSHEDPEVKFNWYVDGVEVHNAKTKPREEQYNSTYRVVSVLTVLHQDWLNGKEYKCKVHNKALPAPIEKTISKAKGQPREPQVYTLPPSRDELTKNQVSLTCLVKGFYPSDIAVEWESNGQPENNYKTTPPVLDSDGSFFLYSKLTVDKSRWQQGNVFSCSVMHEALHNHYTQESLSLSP
light: B1 light
notes: both H chains altered; also called Ho Ab S324_16H
B34: GpH7-B3 variant I332_01G/GpL16-k0 (antibody, human IgG1, kappa)
heavy: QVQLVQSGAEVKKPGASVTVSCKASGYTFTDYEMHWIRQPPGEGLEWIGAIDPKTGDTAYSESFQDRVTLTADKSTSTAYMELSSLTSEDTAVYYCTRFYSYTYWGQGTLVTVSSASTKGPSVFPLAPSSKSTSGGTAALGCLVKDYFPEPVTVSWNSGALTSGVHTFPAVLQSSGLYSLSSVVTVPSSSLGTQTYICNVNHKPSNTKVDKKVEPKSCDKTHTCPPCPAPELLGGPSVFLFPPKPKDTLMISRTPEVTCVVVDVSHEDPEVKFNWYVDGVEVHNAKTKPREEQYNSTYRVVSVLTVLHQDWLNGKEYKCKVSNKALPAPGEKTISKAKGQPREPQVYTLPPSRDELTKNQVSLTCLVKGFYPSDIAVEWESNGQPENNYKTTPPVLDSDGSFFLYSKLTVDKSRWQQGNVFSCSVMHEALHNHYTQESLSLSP
light: B1 light
notes: both H chains altered; also called Ho Ab I332_01G
B35: GpH7-B3 variant T335_15Y/GpL16-k0 (antibody, human IgG1, kappa)
heavy: not shown
light: B1 light
notes: both H chains altered; also called Ho Ab T335_15Y
B36: GpH7-B3 variant T335_19Q/GpL16-k0 (antibody, human IgG1, kappa)
heavy: not shown
light: B1 light
notes: both H chains altered; also called Ho Ab T335_19Q
B37: GpH7-A5/GpH7-B3 variant E333_20W/GpL16-k0 (antibody, human IgG1, kappa)
heavy 1: not shown
heavy 2: not shown
light: B1 light
notes: one H chain altered; also called He Ab E333_20W
B38: GpH7-A5/GpH7-B3 variant E333_03V/GpL16-k0 (antibody, human IgG1, kappa)
heavy 1: not shown
heavy 2: not shown
light: B1 light
notes: one H chain altered; also called He Ab E333_03V
B39: GpH7-B3 variant S337_20W/GpL16-k0 (antibody, human IgG1, kappa)
heavy: not shown
light: B1 light
notes: both H chains altered; also called Ho Ab S337_20W
B40: GpH7-B3 variant K334_09D/GpL16-k0 (antibody, human IgG1, kappa)
heavy: not shown
light: B1 light
notes: both H chains altered; also called Ho Ab K334_09D
B41: GpH7-B3 variant S324_02A/GpL16-k0 (antibody, human IgG1, kappa)
heavy: not shown
light: B1 light
notes: both H chains altered; also called Ho Ab S324_02A
B42: GpH7-B3 variant T335_07I/GpL16-k0 (antibody, human IgG1, kappa)
heavy: not shown
light: B1 light
notes: both H chains altered; also called Ho Ab T335_07I
B43: GpH7-B3 variant E333_20W/GpL16-k0 (antibody, human IgG1, kappa)
heavy: not shown
light: B1 light
notes: both H chains altered; also called Ho Ab E333_20W
B44: GpH7-B3 variant L234_09D/GpL16-k0 (antibody, human IgG1, kappa)
heavy: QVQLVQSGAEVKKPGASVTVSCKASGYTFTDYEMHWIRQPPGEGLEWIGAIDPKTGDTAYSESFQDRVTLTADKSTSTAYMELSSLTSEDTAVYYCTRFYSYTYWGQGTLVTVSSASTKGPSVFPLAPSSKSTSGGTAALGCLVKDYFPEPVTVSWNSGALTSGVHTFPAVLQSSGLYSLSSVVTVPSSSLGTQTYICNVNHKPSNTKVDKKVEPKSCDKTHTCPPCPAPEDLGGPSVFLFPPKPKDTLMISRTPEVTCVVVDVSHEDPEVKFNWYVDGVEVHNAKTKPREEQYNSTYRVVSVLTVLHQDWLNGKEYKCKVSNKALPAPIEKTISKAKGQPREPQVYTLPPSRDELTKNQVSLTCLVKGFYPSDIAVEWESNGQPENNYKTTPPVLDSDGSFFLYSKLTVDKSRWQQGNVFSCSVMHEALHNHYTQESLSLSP
light: B1 light
notes: both H chains altered; also called Ho Ab L234_09D
B45: GpH7-B3 variant S337_18N/GpL16-k0 (antibody, human IgG1, kappa)
heavy: not shown
light: B1 light
notes: both H chains altered; also called Ho Ab S337_18N
B46: GpH7-B3 variant S337_04F/GpL16-k0 (antibody, human IgG1, kappa)
heavy: not shown
light: B1 light
notes: both H chains altered; also called Ho Ab S337_04F
B47: GpH7-B3 variant T335_10E/GpL16-k0 (antibody, human IgG1, kappa)
heavy: not shown
light: B1 light
notes: both H chains altered; also called Ho Ab T335_10E
B48: GpH7-B3 variant I336_06M/GpL16-k0 (antibody, human IgG1, kappa)
heavy: not shown
light: B1 light
notes: both H chains altered; also called Ho Ab I336_06M
B49: GpH7-B3 variant S337_10E/GpL16-k0 (antibody, human IgG1, kappa)
heavy: not shown
light: B1 light
notes: both H chains altered; also called Ho Ab S337_10E
B50: GpH7-B3 variant L234_20W/GpL16-k0 (antibody, human IgG1, kappa)
heavy: not shown
light: B1 light
notes: both H chains altered; also called Ho Ab L234_20W
B51: GpH7-B3 variant I332_06M/GpL16-k0 (antibody, human IgG1, kappa)
heavy: not shown
light: B1 light
notes: both H chains altered; also called Ho Ab I332_06M
B52: GpH7-B3 variant S267_09D/GpL16-k0 (antibody, human IgG1, kappa)
heavy: not shown
light: B1 light
notes: both H chains altered; also called Ho Ab S267_09D
B53: GpH7-B3 variant L234_15Y/GpL16-k0 (antibody, human IgG1, kappa)
heavy: not shown
light: B1 light
notes: both H chains altered; also called Ho Ab L234_15Y
B54: GpH7-B3 variant S324_15Y/GpL16-k0 (antibody, human IgG1, kappa)
heavy: not shown
light: B1 light
notes: both H chains altered; also called Ho Ab S324_15Y
B55: GpH7-B3 variant P238_10E/GpL16-k0 (antibody, human IgG1, kappa)
heavy: not shown
light: B1 light
notes: both H chains altered; also called Ho Ab P238_10E
B56: GpH7-A5/GpH7-B3 variant A330_07I/GpL16-k0 (antibody, human IgG1, kappa)
heavy 1: not shown
heavy 2: not shown
light: B1 light
notes: one H chain altered; also called He Ab A330_07I
B57: GpH7-B3 variant P238_09D/GpL16-k0 (antibody, human IgG1, kappa)
heavy: not shown
light: B1 light
notes: both H chains altered; also called Ho Ab P238_09D
B58: GpH7-A5/GpH7-B3 variant E333_04F/GpL16-k0 (antibody, human IgG1, kappa)
heavy 1: not shown
heavy 2: not shown
light: B1 light
notes: one H chain altered; also called He Ab E333_04F
B59: GpH7-B3 variant H268_18N/GpL16-k0 (antibody, human IgG1, kappa)
heavy: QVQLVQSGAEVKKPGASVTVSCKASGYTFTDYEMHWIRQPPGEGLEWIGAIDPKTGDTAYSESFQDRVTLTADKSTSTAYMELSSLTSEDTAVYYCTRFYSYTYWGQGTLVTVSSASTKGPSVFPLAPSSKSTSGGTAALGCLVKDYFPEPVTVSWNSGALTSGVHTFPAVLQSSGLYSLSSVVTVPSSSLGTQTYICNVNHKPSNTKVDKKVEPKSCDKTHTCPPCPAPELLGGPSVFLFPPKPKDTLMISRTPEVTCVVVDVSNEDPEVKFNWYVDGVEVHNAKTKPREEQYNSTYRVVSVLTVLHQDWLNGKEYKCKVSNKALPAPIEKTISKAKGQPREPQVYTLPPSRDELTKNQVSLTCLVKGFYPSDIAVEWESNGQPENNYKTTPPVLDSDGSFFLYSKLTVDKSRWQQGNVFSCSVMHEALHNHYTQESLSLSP
light: B1 light
notes: both H chains altered; also called Ho Ab H268_18N
B60: GpH7-B3 variant P271_01G/GpL16-k0 (antibody, human IgG1, kappa)
heavy: not shown
light: B1 light
notes: both H chains altered; also called Ho Ab P271_01G

Legend:
[1] = molecular target: T1, FcγRIIIa extracellular domain with C-terminal His tag (human, UniProt P08637 17-208); assay: SPR (Biacore), one H chain altered; HeCon Ab GpH7-A5/GpH7-B3/GpL16-k0 = 100
[2] = molecular target: T1, FcγRIIIa extracellular domain with …; assay: SPR (Biacore), both H chains altered; HoCon Ab GpH7-B3/GpL16-k0 = 100

T1 sequence (P08637 17-208): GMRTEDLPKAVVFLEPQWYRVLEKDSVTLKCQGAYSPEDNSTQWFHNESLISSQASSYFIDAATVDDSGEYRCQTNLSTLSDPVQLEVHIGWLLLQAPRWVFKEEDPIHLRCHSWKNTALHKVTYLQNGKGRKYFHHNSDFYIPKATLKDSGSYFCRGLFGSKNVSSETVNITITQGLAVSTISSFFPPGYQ

Row | Binder | He/Con_3a [1] | Ho/Con_3a [2]
1 | B1 | 155% | –
2 | B2 | – | 134%
3 | B3 | 106% | –
4 | B4 | – | 49.9%
5 | B5 | 105% | –
6 | B6 | – | 91.8%
7 | B7 | 103% | –
8 | B8 | 121% | –
9 | B9 | – | 110%
10 | B10 | 103% | –
11 | B11 | – | 104%
12 | B12 | – | 99%
13 | B13 | – | 95.8%
14 | B14 | 118% | –
15 | B15 | 104% | –
16 | B16 | – | 114%
17 | B17 | – | 97.6%
18 | B18 | – | 97.2%
19 | B19 | – | 101%
20 | B20 | – | 108%

Row | Binder | He/Con_3a [1] | Ho/Con_3a [2]
21 | B21 | – | 41.6%
22 | B22 | – | 109%
23 | B23 | – | 98.2%
24 | B24 | – | 58.3%
25 | B25 | – | 107%
26 | B26 | – | 99.5%
27 | B27 | – | 104%
28 | B28 | – | 145%
29 | B29 | 101% | –
30 | B30 | – | 90.5%
31 | B31 | – | 106%
32 | B32 | – | 118%
33 | B33 | – | 103%
34 | B34 | – | 104%
35 | B35 | – | 91.5%
36 | B36 | – | 97.7%
37 | B37 | 101% | –
38 | B38 | 103% | –
39 | B39 | – | 87.8%
40 | B40 | – | 150%

Row | Binder | He/Con_3a [1] | Ho/Con_3a [2]
41 | B41 | – | 99.8%
42 | B42 | – | 107%
43 | B43 | – | 90.9%
44 | B44 | – | 52.8%
45 | B45 | – | 102%
46 | B46 | – | 95.6%
47 | B47 | – | 102%
48 | B48 | – | 107%
49 | B49 | – | 100%
50 | B50 | – | 37.1%
51 | B51 | – | 95.4%
52 | B52 | – | 160%
53 | B53 | – | 64.7%
54 | B54 | – | 100%
55 | B55 | – | 0.8%
56 | B56 | 103% | –
57 | B57 | – | -0.1%
58 | B58 | 101% | –
59 | B59 | – | 90.3%
60 | B60 | – | 88%
